test: soluble on expression in E. coli; label from the status in PepcDB or PDB records

Soluble on expression in E. coli, not soluble:
MGSDKIHHHHHHMLTHSTNPRGGVVHAMQLSEALTALGHAVTLHAPDPKGTGFFRSPACGAACFPVPPALADMTALVEQRIADYIGHFEQADNRDFDVFHAHDGISGNALATLKSRGLIPSFVRTIHHIDQFEDPRLMVLQDRSIQRADAFLAVSAAWQAILRDSYGVDAKVVGNGVDNRRFSPAWSGEQTALRDRIGLHAGAVFLSIGGIEARKNTLGILDAFRQLRAVKPDAQLVIAGGVSLLDHRDYQEEFQSHLRALRDDAAAVHIIGAVSDDDMPNLYRLADALVFPSLKEGFGLVVLEAMASGVPAIVPSIAPFIDYLSGDDALWCDPLHSASIAEAMALALVPEIRERIIPRGLEVASRFTWRRVAEAHLSTYATLKEAAHA
AADALVRVDGFERTSSSNTVTDIVPGVVLNLTKAAEGTKVTLGVTADTSGLKGNLTAFAAAYNTANTLLKNSSSYNAETRTASALTGDSLVRGLQQQLRGQVSGSISELKALGLTIDKDGVMSFDGGKFDTAIAADGGAAAEALGKDSKFGSGLTKLLDANVNVNNGTLTLRSDSLNKQIKGFEADLDNLDARMEKLTDRYTAQFTAMETMISKMQGATGSLSSLLAI
MLKKILLSLVVFYQRFISPLTPPTCRFYPTCSQYTREAIEYHGALKGLYLGVRRILKCHPLHKGGFDPVPLKKDKNSKTTHHHLEHHHHHH
MGSDKIHHHHHHMDYTPRLQPARLIKRYKRFLADVVTPEGETLTLHCANTGAMTGCATPGDTVWYSTSDNPKRKYPQSWELTETQQNHWICVNTLRANTLLYEALLENRIEELAGYSDIKTEVKYGTENSRIDLLLQAPDRIDCYIEVKSVTLLQHECGYFPDAVTLRGQKHLRELQQMVSNGKRAVLFFAVLHSGIQQVSPARHIDSRYAELFIEAQQAGVEILCYGSTLCPDGIKLTNKLPLLG
MGSDKIHHHHHHSAHNKVSSQKLEAKNVNQVSNYSGDIDLLTVSQPTTPTTNNGQINQYFINRFDNAISLLNGKYVVNHNVLPQNTSGEEINILNESVKIANQQLIVGAQKIEKSDIDVKVVQKGNSIILAENPTTLKNSATSMATKHVGVTKVEFHWYGVRLFLSKNDVNKILKYGPTSVSIATIWMPTTWVVKLAASAAVACGWMSSVNGGIWIDWGLIPTKWGWQ
MGSDKIHHHHHHMSCKAFQGQTLREHIEAMLAAWEIVKNKYIPSIIRVMKTVGVKFTEEDADKFMKTLIILHDVGKCSEVYQKHLSNNEPLRGFRHELVSAYYAYNILKDMFKDETIAFIGALVVMMHHEPILMGQIRSLDKEELTPEVVLDKLRTFNGVMEGTESFIKSMIKEKLGVIPKVPSPTQEDVLREVIRLSVLARHRPDSGKLRMVVGALLIPLVLCDYKGAKEREGESPKFAEVLRVEMMK
MNFGACPADIEDDEVVASFNVYASPALVNQAHIFQYPLRRRQRPYEATEIKLFSTSGTVAEESEALLAQGKGSSVLQPGSRLTMKCSLDTFGSPSFRPLPEFAPDMLGQMELQRHHTFNYTLQSQPFLPQSNYVLGYITLEGIHLTPVSTIQQFTPALSIPESSTGAVRVTEAFCSQSNSTAMPGFAAADRIQRELRRQRSRVLNGEADTAQEIQFFRDDSVESSAMRSRLCSSTLERITGNLNAASEPAEVENSLFPPEILQSGGISGGDEAHPSMIIHRFANCKSVAEQTNQLLQRCHILTLQRLQNIVVPYTSNEVVKTMSTVPEAQLVEALKSCAVWLHGVWVSRYCDQFRGSVAALREVILARFYQSEDGSVARADFNAWITTSAARRSIKEILATVAVLNTDEPDPSKRRWRLKYVPEDRAAREANLRDFKAKFAAEEASQHEAWRRRCAQVMAHIPYINAGRPVSQLCLRPRSTPPTTGTAASATLPYGSPNAAQSIAPSVSSMTSGHSGSGVTASASPFSSPAPGADLGFKDADIAPIRHYIRELFAEHGVINKQRVKDLVIKAQEARYPHATKAMLSTALQQCLDKFTDATWILKSAGEPIVDYYRPAILYVVLELRQFEMAALMKRLEEVVRARGLTSPPESAALRGRIGGASGTLEAVVQRVVAEVAEFKAGGRLWHIKGGNLMNE
MKLDKYTVGKRYGKALFELAVEKNQAEAIYQELLTLREVYHQVPGIGDILSDDRLEPYEKDSIMEKLVTGFSEMMQNFLRVVYEYRRMYDLLLMIDEYERRYDEHQGLILGSVTTAIPLSKEQHQAMEEKAAQLLGYEQAHLVNLIDPSIVGGVVIEANHQVIDGSIRKQLEHMQQKLLK
MQFTDGGKEVELRLRLKTGEILSPKDISVDADGTSLAVKEKRNGLLITLLETNHLFEKIMPSETIWYIDEDQLVVNMKKVDGELKWPDIVESWESLTAGMMQLLKGASIYIVGDSTEINQKVSRELAVGLGYSPLDSKELLESFSKQTIDSWILAEGPDSVAEAESSVLESLSSHVRTVVSTLGGKHGAAGRADQWRHLYSGFTVWVSQTEATDEESAKEEARRSKQEREIGYSNADVVVKLQGWDPTHAKSVAQASLSALKQLIISDKGLPGNK
MAHHHHHHMSWRTRVVRCPLQEPHNPFDMGRVMQRFWSPFCKGVKGPDLHTYGFGETFSGMRTHDSDFTCQVNGQVGGAKLVEDFFITLLCGFDFEHVKVERHLTTSGAADPCQFQGTIVLAHTRPFLGWCPQPVTHSLEKCPSPSECDATKVSTNNINELGNTTATASRCLVQTGGNTEAPVPSLILNVPFTARLEGNVGRISHMILRSPAIGVIAAHQCCPAEVGSCLQNPEALQALVTLRRANVRPEMITDRTLVGITAKKAAWCSALGIL
MTSKQSVSQCVKPPRPPAWIMQPPPDWQTPLNGIISPSERGLEHHHHHH
MGSDKIHHHHHHMRADIIKVNHLLEIEMENNIGKEYLPSRLEEISDEHWHISMPMRKGMYITMRVGQKIRIVLRYRNTMFAATTVIAARRRGHIPVLIVSKPKDLIAINQKRTYVRISVAIPVAFRLLLADGEKGELLQGVTGDISAGGMLLLSPQDMEKDQKIEVEIKLPDSDSIFCQAHVVRVLGKASEEGSNNKYAIEYDDINEGQRDRIFRFIFDKQREWLRKGVTE
MGSDKIHHHHHHMTEKATLAKQILHFNETLSSNSMDLPAGYRVINPYEGDQKELVRNITTRFYQKYYNDTKPRRIIFGSSPARRGSAVTGVPFEDAKHLQSETGIFIDTFYINQSSSDFLYDVMNEYGGCEQFYSDFYMNFVCPLGIVRINAKGNEVNCNYYENKQLREALMPFIIESIRSQIDFGMDTSVCYCIGSGENFKFLSRINEEHHFFETIIPLEHPRFIMQYNSKNKDTYMEKYLCALKI
MTEQLPNCPECGSAYAYEDRGLFICPECGHEWSPTEEVAEEGLVVKDSNGNLLADGDSVTVIKDLKVKGASGAIKQGTKVKNIRLVEGDHNIDCKVDGFGPMKLKSEFVKKN
MGSDKIHHHHHHMELVYKITYHRIQAHYLPKLVQAVQFVSEENLWKQGESVNSIGGIVLHICEHMQRNTSRYKNPNIVFEKGIEEYFPTKRQHTEVLLQYVEKVFDEWGKAYIQAWEEKRHIELHSLLHLVEHTSYHLGQIVDRTKLIKGQQFNFCQNGINEKNLRTRVETSKF
MTTFPILRLPEKSLKIAIRCLTMEQIIKFSLISESTKRTAESLNLQADPFWICFGESVHISVHANFVENYQQDIPWNPVEVDLRTLLDHFQSVLHTNKFEYFFV
MGSDKIHHHHHHMFKRETKDFINIDPLQTGGKLTEEARQALLEWGDGYSVCDFCTTGRLDEIKTPPIHDFIHNQLPKFLGCDVARVTNGAREAKFAVMHSLAKKDAWVVMDENCHYSSYVAAERAGLNIALVPKTDYPDYAITPENFAQTIEETKKRGEVVLALITYPDGNYGNLPDVKKIAKVCSEYDVPLLVNGAYAIGRMPVSLKEIGADFIVGSGHKSMAASGPIGVMGMKEEWAEIVLRRSEKYKNKEVELLGCTARGATIITLMASFPHVRERIKRWDEEVEKARRFAAEMEKLGIKQLGDNPHNHDLMFFHAEVLYEISKKAKGGRFFLYRELKSRKIHGIKPGLTRYFKLSTYGLSDEEVDYVLNAFKEIIEKYS

Soluble on expression in E. coli, soluble:
MAATARRGWGAAAVAAGLRRRFCHKLKNPYTIKKQPLHQFVQRPLFPLPAAFYHPVRYMFIQTQDTPNPNSLKFIPGKPVLETRTMDFPTPAAAFRSPLARQLFRIEGVKSVFFGPDFITVTKENEELDWNLLKPDIYATIMDFFASGLPLVTEETPSGEAGSEEDDEVVAMIKELLDTRIRPTVQEDGGDVIYKGFEDGIVQLKLQGSCTSCPSSIITLKNGIQNMLQFYIPEVEGVEQVMDDESDEKEANSP
MSLNELDCLETASIKIDPFTLELSRSLSTAVGDIEQRRGHVVCVDINGTVGIGEATPLPGWTERYPDCQDALRSVSTDSTSTSTSTSTSTSASEITPDTRSAAHHGIELACVDAMARHHDSSLARFLSTDTPATSIPVNATIGDCDSEQTYKKAESAVEDGYTTIKLKVGARDIESDCNRVIAARSAVGEDITLRVDANGAWNRTAAERFLETARTVDIAYIEQPLPASDLDGHALLRGRGVDIAVDESMNRTSPEQIFAADAADIIVCKPMALGGPKQTLAVARKAEAVDIDTVVTTTIDGVIARMGAVHIAAALPGSGSNARACGLATGSMLADDLTANPVSISDGEISVPTGPGLAGGALRSCCNREGHHHHHH
MRILFVAAGSPATVFALAPLATAARNAGHQVVMAANQDMGPVVTGVGLPAVATTDLPIRHFITTDREGRPEAIPSDPVAQARFTGRWFARMAASSLPRMLDFSRAWRPDLIVGGTMSYVAPLLALHLGVPHARQTWDAVDADGIHPGADAELRPELSELGLERLPAPDLFIDICPPSLRPANAAPARMMRHVATSRQCPLEPWMYTRDTRQRVLVTSGSRVAKESYDRNFDFLRGLAKDLVRWDVELIVAAPDTVAEALRAEVPQARVGWTPLDVVAPTCDLLVHHAGGVSTLTGLSAGVPQLLIPKGSVLEAPARRVADYGAAIALLPGEDSTEAIADSCQELQAKDTYARRAQDLSREISGMPLPATVVTALEQLAHHHHHH
MAKRVYLLSEARGLSRDLLGGKGHGLAEMAAAGLPVPPAFIVTTEACRQYLKAGEVPGLWGEVRAGMAALEGLTGKRFGRGEGKAPPLLVSVRSGAPVSMPGMMDTVLNLGLTLEGVEALARATGNPRFAWDSLRRLLAMYGEVVLGEGPEVFEGMLSALKAERGVGTDAALGPEDLEELAYRYLRHLEARGTPFPLDPWAQLQGAIEAVFRSWQNPRARTYRRIYGIPEDLGTAVVVQAMVFGNLGEDSGTGVGFTRNPATGEKGLYGEYLRNAQGEDVVAGVRTPEPLERLKGYAPGLYEELLQVAERLERHFRDMQDFEFTVERGRLFLLQTRAGKRTAQAAVRIAVEMAEEGLISREEAVMRVEANALPGLLRPSVDRDQAPRPLLKGLPASPGAAVGHAAFTNEAVERFHAQGLPAVLVRPETTPEDITGMYLAKGILTARGGLTSHAAVVARGLGVPAVVGAEALRVFPGEGRALAEGVEIREGDLLTLDGGTGEVYLGAVPLVEAGGEALLEKLLSWAEPHRRLGVRANADTPEDAQRARAFGAEGIGLCRTEHMFFREDRLPWVRRLILAETPEEEALALERLFHFQKEDFKEILRAMDGLPVTVRLLDPPLHEFLPPLEALARRAEEGDEEAGRLLRRAEALKEANPMLGFRGARLLLLRPGVFRMQLRALLEAARELKEAGHDPRPEVMVPLVADPKEVERARALAEELFREYGPIPFGTMVETPRAALLAAEIAPLVDFFSFGTNDLTQMAFGLSRDDAGKFLPRYVEEGLFPFDPTERLDEKGVGRLLRMAAEEGRKANPRLKLGLCGEHGGEAGSVRFVADLLDYTSASPFRVLTARLAAAQAGLSRALKPA

Source: the DeepSol protein solubility set
